Assay results published in the DeepSol protein solubility set.

Assay: soluble on expression in E. coli; label from the status in PepcDB or PDB records

Sequence	soluble on expression in E. coli
MSVKKKTQVRTGKMVRELMLADEDVNASLIMVYSENGVNAEIKIEGLTPKCNEELFLSGNVDWNKSVIYKIVDFTGNAEVGKVTLTAMNKNNVSLEIERVMWSKENKEAAEQEETQVEAAPKKEVVVEAPKAITPAPKPVTRVETPAMAPKPTPVPTPKPVSVEAAVELVTPAPVKKAVPTPVTKQETAPVAPAKPKQPALTETNSKLQENYVKLVKKTIEVCQDYELGIDIDDSIESLKEELQSQGISVTFDKEIMDVVNRLRSLQDKGIKVEKVLNLL	not soluble
MSVVIERIPKEAIPKSLLLLADPSERQIATYVQRGLTYVAKQGGSVIGVYVLLETRPKTMEIMNIAVAEHLQGKGIGKKLLRHAVETAKGYGMSKLEVGTGNSSVSQLALYQKCGFRIFSIDFDYFSKHYEEEIIENGIVCRDMIRLAMELNKNV	soluble
MSWIERIKSNITPTRKASIPEGVWTKCDSCGQVLYRAELERNLEVCPKCDHHMRMTARNRLHSLLDEGSLVELGSELEPKDVLKFRDSKKYKDRLASAQKETGEKDALVVMKGTLYGMPVVAAAFEFAFMGGSMGSVVGARFVRAVEQALEDNCPLICFSASGGARMQEALMSLMQMAKTSAALAKMQERGLPYISVLTDPTMGGVSASFAMLGDLNIAEPKALIGFAGPRVIEQTVREKLPPGFQRSEFLIEKGAIDMIVRRPEMRLKLASILAKLMNLPAPNPEAPREGVVVPPVPDQEPEA	soluble
MSWKIIEKYRRILAQEEGNSPKRRGGKLTVCLVYPNRYGVAMSNLGFQAVHALLNAESDILCERAFLPDPDDLREYRRSGARLLSLESQEPLSSFDIIAFSVSFESDYLNIPVIFDLAGIPALAAERTGSHPLVMGGGAALFLNPEPVADFLDLIVVGEGEAILPTFLDHIRADGIGDRAMFLAGVAGLPGIYVPSLYATEYDGARLVSREAKDGAPEQVKRIWMAEPDGRATVSEILTPGTEFSDMYLVEVSRGCGRGCRFCAAGFIYHPYRQRSLDAVKAAVAEGLSHRRKIGLVGAAVSDFREIGELCRHILAEGGTVSVSSLRIDRLDEGMIEVLKASGHKTVALAPEGGSQRIRDLINKNLTEEQILAACDLLIGHDILNLKLYFIIGLPTETMDDLEEMALLVEKIRKRVIAAARKNKRLGEIILSVNPFVPKPFTPFQWCGMEDTPSLEKKLKYLQQTVGRLSNVRLIAESPKDAWLQALLSRGDRRLSGFLLRAAELGNWKRAAREFPVDTDFLVHRTIPLDEMLPWDVIASADAERLRREYLKATPPRLEHHHHHH	not soluble
MSWQTYVDEHLMCDIDGQGEELAASAIVGHDGSVWAQSSSFPQFKPQEITGIMKDFEEPGHLAPTGLHLGGIKYMVIQGEAGAVIRGKKGSGGITIKKTGQALVFGIYEEPVTPGQCNMVVERLGDYLIDQGL	soluble
MSWTDERVELLKKMWGEGQSASQIAKELGGVTRNAVIGKVHRLGLSNRSSGAAPASTKAETKEKPAAATPRAEAKPKPAPRPEPLRAAPDPAPAPQPAEIKPIPARKQIIPAGQPLPPQPSANEISPEALAKVNEVEKKAKKLSLMELTERTCKWPVGDPATEDFWFCGLPVQQGKPYCEAHVGVAFQPMSSRRDRRRLEHHHHHH	soluble
MSYAKVSHWQMASTEQLIIPPNNDPRPDDQLVIVVVTADGIASPIPLNVSRREVIRQVEMLNRNLTAANRGDNYQGQASQLYDWFIKPIKLILENKKIENISFILDRGLRSLPMATMYDRQSGQYLIEDYSVGLMPSLSLTNRDYAPLTGAQILAMGAEEFANQNPLPAAAVEVDTITNQLWRGSAFLNDRFTVDNFVQSLATKEYRLVHLATHGEFLPGNRNNSFVVFSDRSLDLDEFANVGLDKPIDLMVLSACRTAVGDFDAELGFAGLAVKTGVKTAIGSLWYVSDEATFALMTSFYDRLQPAPIKAKALQQAQLSLLRGEIRVVDGNLVLGDGTNISLADLPADIRQRLATQDLSHPYFWSGFTLVGSPWLEHHHHHH	not soluble
MSYCCCQSNIPPDGCIRDGMPVFCGLFPSGYRAPPRSLSPPAFRSVLVSGHQPQYADCQTRTGRPVRSPVTPPPAHTSAVHGALSLPGQPADMAMMCFHSQPRDEYGETDDTGMYPAHWKDWPSGCTRSQSVYR	soluble
MSYGLIIVLMIILGIGLWHTKKYHRAVVNQVAHVWITKNAFEHTALGMAIVSPDCRFLKVNRAYGEITGYTRPELLKMAVKELTHPEDQEKDTPYLQEVFAGNIHSFTTVKRYIHKNGSTIWVRSTISAVRTERGNLKYFVLEHHHHHH	not soluble
MSYNNLLAIEKPVRYTGDEIGSRPKEDAELRFVLAFPDVYEVGMSHLGLQILYDILNREEGIAAERAYTPWPDREAQLRSLGESLATLESQTSLARADIIGFTLQYELSYTNILTMLDLAGIPFRAAERGDEFPLVIAGGPCACNPEPLADFLDAVLLGDGEEAVVEIAAACLERKRNGESKQWLLERLASIDGVYVPSFFEPRYHDDGTIDAIIPLRPAHGRVRRRFLSDLDTAPYPTAPVVPFLKTIHDRVSIEIGRGCTRGCRFCQAGYLYRPVRERSPETILKLVEETLRNTGYDEVSLLSLSTGDYGCLTPLLRELMVRYAHERIAVALPSLRVGSLSQELVEEIRKVRKTGFTLAPEAGSERLRTIINKGISEEDLLRNAFEAFSNGWRVIKLYFMIGLPGETEEDLVGIADLARKVKQEGKRAGSGGEVNVSVSTFVPKPHTPFQWEPQITTEETVAKQRFLRDELKKRKLGLKWHDAPLSFMEGVFARGDRRLGAVLAKAWELGCRFDGWGDRLKSTTWHEAFAVCGIDPAFYHRRRGIDETLPWDHLDFGVTRAFLRQELEKAWAGEPTGDCRTGRCTGCGICDFDRIAMRTTDPAWQKGLEHHHHHH	not soluble
MSYNYVVTAQKPTAVNGCVTGHFTSAEDLNLLIAKNTRLEIYVVTAEGLRPVKEVGMYGKIAVMELFRPKGESKDLLFILTAKYNACILEYKQSGESIDIITRAHGNVQDRIGRPSETGIIGIIDPECRMIGLRLYDGLFKVIPLDRDNKELKAFNIRLEELHVIDVKFLYGCQAPTICFVYQDPQGRHVKTYEVSLREKEFNKGPWKQENVEAEASMVIAVPEPFGGAIIIGQESITYHNGDKYLAIAPPIIKQSTIVCHNRVDPNGSRYLLGDMEGRLFMLLLEKEEQMDGTVTLKDLRVELLGETSIAECLTYLDNGVVFVGSRLGDSQLVKLNVDSNEQGSYVVAMETFTNLGPIVDMCVVDLERQGQGQLVTCSGAFKEGSLRIIRNGIGIHEHASIDLPGIKGLWPLRSDPNRETYDTLVLSFVGQTRVLMLNGEEVEETELMGFVDDQQTFFCGNVAHQQLIQITSASVRLVSQEPKALVSEWKEPQAKNISVASCNSSQVVVAVGRALYYLQIHPQELRQISHTEMEHEVACLDITPLGDSNGLSPLCAIGLWTDISARILKLPSFELLHKEMLGGEIIPRSILMTTFESSHYLLCALGDGALFYFGLNIETGLLSDRKKVTLGTQPTVLRTFRSLSTTNVFACSDRPTVIYSSNHKLVFSNVNLKEVNYMCPLNSDGYPDSLALANNSTLTIGTIDEIQKLHIRTVPLYESPRKICYQEVSQCFGVLSSRIEVQDTSGGTTALRPSASTQALSSSVSSSKLFSSSTAPHETSFGEEVEVHNLLIIDQHTFEVLHAHQFLQNEYALSLVSCKLGKDPNTYFIVGTAMVYPEEAEPKQGRIVVFQYSDGKLQTVAEKEVKGAVYSMVEFNGKLLASINSTVRLYEWTTEKDVRTECNHYNNIMALYLKTKGDFILVGDLMRSVLLLAYKPMEGNFEEIARDFNPNWMSAVEILDDDNFLGAENAFNLFVCQKDSAATTDEERQHLQEVGLFHLGEFVNVFCHGSLVMQNLGETSTPTQGSVLFGTVNGMIGLVTSLSESWYNLLLDMQNRLNKVIKSVGKIEHSFWRSFHTERKTEPATGFIDGDLIESFLDISRPKMQEVVANLQYDDGSGMKREATADDLIKVVEELTRIH	soluble
MSYQPTSLTVASYNLRNANGSDSARGDGWGQRYPVIAQMVQYHDFDIFGTQECFLHQLKDMKEALPGYDYIGVGRDDGKDKGEHSAIFYRTDKFDIVEKGDFWLSETPDVPSKGWDAVLPRICSWGHFKCKDTGFEFLFFNLHMDHIGKKARVESAFLVQEKMKELGRGKNLPAILTGDFNVDQTHQSYDAFVSKGVLCDSYEKCDYRYALNGTFNNFDPNSFTESRIDHIFVSPSFHVKRYGVLTDTYRSVRENSKKEDVRDCPEEITIKAYEARTPSDHFPVKVELVFDLEHHHHHH	soluble
MSYRMFDYLVPNVNFFGPNAISVVGERCQLLGGKKALLVTDKGLRAIKDGAVDKTLHYLREAGIEVAIFDGVEPNPKDTNVRDGLAVFRREQCDIIVTVGGGSPHDCGKGIGIAATHEGDLYQYAGIETLTNPLPPIVAVNTTAGTASEVTRHCVLTNTETKVKFVIVSWRNLPSVSINDPLLMIGKPAALTAATGMDALTHAVEAYISKDANPVTDAAAMQAIRLIARNLRQAVALGSNLQAREYMAYASLLAGMAFNNANLGYVHAMAHQLGGLYDMPHGVANAVLLPHVARYNLIANPEKFADIAELMGENITGLSTLDAAEKAIAAITRLSMDIGIPQHLRDLGVKETDFPYMAEMALKDGNAFSNPRKGNEQEIAAIFRQAF	soluble
MSYSIDNPGGGDCGFYALAIGLISIIQNEYKLHGKSKTYDRWKQVENIYGVRLQDILNIDLTKLHYSPYTYKSELLFLLQMSLRNIAVIVNKEDLVKRIIEEGRSKDQTKIEGSNAYCKFMELVQLYLYRRGSLERISQFNELALSPEIVQTARDIARMLRPILRNQPFHQAQKIENAFVKEVLLNDVLSGNTINSNSIILKSLEKIKEQGRWATHDDLKEIAELLKINLNVVGQPNGKPIPEYPTVTLKNLSNTHWITQVESLQGPRQYSTPSKRAFGYETLSDRAVPLKEEQTLDRAFRTETQSERTRRYNQHFETLFDTLSPYGFFPHVQSKRNVHVFGKAQTGLESDEALAAQLQEAELRRILY	not soluble
MSYYHHHHHHDYDIPTENLYFQGAMGRADPRNQRVLLDEYSRQRGQITAGGQLLAYSVATDGRFRFLRVYPNPEVYAPVTGFYSLRYSSTALERAEDPILNGSDRRLFGRRLADFFTGRDPRGGNVDTTINPRIQQAGWDAMQQGCYGPCKGAVVALEPSTGKILALVSSPSYDPNLLASHNPEVQAQAWQRLGDNPASPLTNRAISETYPPGSTFKVITTAAALAAGATETEQLTAAPTIPLPGSTAQLENYGGAPCGDEPTVSLREAFVKSCNTAFVQLGIRTGADALRSMARAFGLDSPPRPTPLQVAESTVGPIPDSAALGMTSIGQKDVALTPLANAEIAATIANGGITMRPYLVGSLKGPDLANISTTVGYQQRRAVSPQVAAKLTELMVGAEKVAQQKGAIPGVQIASKTGTAEHGTDPRHTPPHAWYIAFAPAQAPKVAVAVLVENGADRLSATGGALAAPIGRAVIEAALQGEP	soluble
MTAAADLILYNGDVHVLTDTATPADPAHSAVAIRDGRIVGLSNDYDAAFRADTGTREVDLGGRVVVPGFVDAHTHLAVLGKHGVHADLRGADSPAAATARLAERARETDAGWVLGFGYDDSQWSAALSTADLDAVSEARPVAAIREDMHTATVNGVALAEHGDEMPAADVGEDGRIVEDAVEAVYDATDPDLAGTRPLIEAAQREANERGVTAVHEMVRDSHAPRVYRELDAAGELSVRVRLNYWADHLDAVLETGLVTNHGGGMVTVGGIKTYTDGSLGGRTAKLSEPYADAPGETGQWVVDPSALAALVERADDAGLQVVAHAIGDAAVDAVLDAYEDAGERRHRIEHAELASDDAIERMADLGVVASVQPNFLKWAGSGGLYADRLGTARREASNRFADMLDAGVDVAFGSDCMPLAPLVGVHHAVTAPADAQRLSVTAALRAYTSGGARAGCREDEQGVIREGALADLTVLDASPWEHADAIADEVGVSMTVVDGAVVYDGRLEHHHHHH	not soluble
